Data reported in US9539338B2, “Polymer-based protein engineering methods to rationally tune enzyme activity, pH-dependence and stability” (Carnegie Mellon University, priority 2013, dated 2017).

Experiments:
[1] = biological target: T1, Suc-AAPF-pNA (Bos taurus, UniProt P00766); assay: Enzyme activity: hydrolysis of Suc-AAPF-pNA at pH 5-10 (native CT, chymotrypsin-pQA conjugates); type: biochemical; conditions: 0.1 M phosphate buffer
T1 construct: purchased Sigma Aldrich; host or cells: bovine pancreas
Method: (§1) N-Succinyl-Ala-Ala-Pro-Phe p-nitroanilide (0 to 50 μL of 9.60 mM in DMSO) was added to sodium phosphate buffer (990 to 940 μL of 100 mM, pH 5-10). Native CT or conjugates solution (10 μL of 4.0 μM) was added to the substrate solution. The initial rate of hydrolysis of the peptide substrate was monitored by recording the increase in absorption at 412 nm using a UV-VIS spectrometer. The Michaelis-Menten parameters (kcat, KM and kcat/KM) were determined by non-linear curve fitting (using the well known Michaelis-Menten kinetics equation, V=Vmax[S]/KM+[S], kcat=Vmax[E] where [E] is enzyme concentration, [S] is substrate concentration, and V is initial rate of the reaction) of plots of initial rate versus substrate concentration using the Enzfitter software.
Enzyme activity (kcat), specificity (KM), and productivity (kcat/KM) values were determined for each of the conjugates and native chymotrypsin at 25° C. in 0.1 M phosphate buffer (pH 5-10). Values were determined by monitoring the enzyme catalyzed hydrolysis of Suc-AAPF-pNA. Enzyme concentration for each of the reactions was 39 nM, with substrate concentrations ranging from 0-700 μM. The reaction was monitored for the first 30 seconds after mixing enzyme and substrate.

[2] = biological target: T1, Suc-AAPF-pNA; assay: Enzyme kinetic assay: hydrolysis of Suc-AAPF-pNA at pH 5-10 (native CT, CT-PDMAEMA conjugates); type: biochemical
Method: as §1, with “Km” for “KM”, “kcat/Km)” for “kcat/KM)”, “(equation for” for “(using the well known”, “parameters)” for “kinetics equation, V=Vmax[S]/KM+[S], kcat=Vmax[E] where [E] is enzyme concentration, [S] is substrate concentration, and V is initial rate of the reaction)”

[3] = Enzyme stability at 25° C. or 40° C., first order inactivation; type: physicochemical; conditions: 1 mg enzyme/mL, pH 8.0
Method: Native CT and CT conjugates (1 mg enzyme/mL) were dissolved in 0.1 M sodium phosphate buffer (pH 8.0) and incubated in a water bath at either 25° C. or 40° C. At various time points, aliquots were removed and diluted to 0.1 mg enzyme/mL using 0.1 M phosphate buffer (pH 8.0). Residual activity was calculated as the percentage of activity remaining relative to the activity at time zero. Substrate (Suc-AAPF-pNA) concentration was kept constant at 288 μM for each sample and time points.

[4] = Thermal stability at 37° C., pH 8.0; type: physicochemical; conditions: 8 hours incubation at 40 μM, 0.1 M sodium phosphate pH 8.0, 37° C.
Method: Native CT and CT-conjugates (40 μM) were dissolved in 0.1 M sodium phosphate buffer (pH 8.0) and incubated in a water bath in 50 μL aliquots at 37° C. At specified time points, aliquots were removed and diluted to 4 μM using 0.1 M sodium phosphate buffer (pH 8.0). Residual activity, measured in 0.1 M sodium phosphate buffer (pH 8.0) at 25° C., was calculated as the ratio of activity remaining relative to the activity at time zero. Substrate (Suc-AAPF-pNA) concentration was kept constant at 288 μM for each sample and time point. Native CT and conjugate activities were measured in duplicate at each time point.

[5] = biological target: T2, aprotinin (AP) (Bos taurus, UniProt P00974); assay: Inhibitor binding study with aprotinin; type: biochemical, Bovine; conditions: 25° C.; for Apparent Vmax / KM/Vmax: pH 8.0
T2 construct: purchased Sigma Aldrich; host or cells: Nicotiana (tobacco) for aprotinin; bovine pancreas for chymotrypsin
Method: Apparent KM and Vmax values were calculated using EnzFitter by Michelis-Menten curve fitting of substrate against initial velocity plots. (B) Secondary plots with calculated apparent KM and Vmax values were used to determine inhibition constants of aprotinin towards native chymotrypsin.
FIGS. 23A and B show (A) Substrate/initial velocity plots and (B) secondary plots to determine inhibitor constant for chymotrypsin-pQA200 with aprotinin in 0.1 M sodium phosphate buffer (pH 8) at 25° C. The procedure used was the same as described above for aprotinin and native chymotrypsin.
Enzyme inhibition was assayed by measuring the hydrolytic activities of samples which contained a fixed concentration of protease and varying amounts of inhibitor, including a blank with no inhibitor. Inhibitors and peptide substrate were simultaneously added to the native and conjugate solutions immediately before measuring initial rates. The initial rate of hydrolysis of the peptide substrate was monitored by recording the increase in absorption at 412 nm. To determine dissociation constant of the enzyme-inhibitor complexes (Ki), Vmax app and KM app were determined by non-linear curve fitting (equation for Michaelis-Menten parameters) of plots of initial rate versus substrate concentration using the Enzfitter software. The dissociation constants were calculated from secondary plot of KM app/Vmax app versus initial inhibitor concentration.

[6] = Size measurements during 167 mM HCl (pH 1) incubation; type: physicochemical
Method: CT conjugates (4 μM) and native CT (29 μM) passed through a […] cellulose filter were incubated in 167 mM HCl at 37° C. in 1 mL aliquots. Aliquots were removed from incubation at each specified time point. Hydrodynamic diameter was then determined using a Malvern zetasizer nano-ZS at 25° C. Intensity PSD measurements, averaged over five sample runs at each time point, were used to calculate hydrodynamic diameter (Dh).

[7] = pH 5.0, 100 mM sodium phosphate
[8] = pH 6.0, 100 mM sodium phosphate
[9] = pH 7.0, 100 mM sodium phosphate
[10] = pH 8.0, 100 mM sodium phosphate
[11] = pH 9.0, 100 mM sodium phosphate
[12] = pH 10.0, 100 mM sodium phosphate

“α-Chymotrypsin (CT) from bovine pancreas (type II) [Native CT]” gave a Km ([1]; pH 5.0, 25° C.) of 184 µM, a kcat ([1]; pH 5.0, 25° C.) of 2.85 s⁻¹ and a Km ([1]; pH 6.0, 25° C.) of 171 µM. For the same substance, the kcat ([1]; pH 6.0, 25° C.) was 14.80 s⁻¹, the Km ([1]; pH 7.0, 25° C.) was 94.3 µM and the kcat ([1]; pH 7.0, 25° C.) was 26.81 s⁻¹. The Km ([1]; pH 8.0, 25° C.) was 82.6 µM, the kcat ([1]; pH 8.0, 25° C.) was 32.00 s⁻¹ and the Km ([1]; pH 9.0, 25° C.) was 123 µM. For the same substance, the kcat ([1]; pH 9.0, 25° C.) was 33.30 s⁻¹, the Km ([1]; pH 10.0, 25° C.) was 336 µM and the kcat ([1]; pH 10.0, 25° C.) was 36.62 s⁻¹. The Km [2, 7] was 212 µM, the kcat [2, 7] was 2.28 ± 0.36 s⁻¹ and the Km [2, 8] was 189 µM. The kcat [2, 8] was 12.13 s⁻¹, the Km [2, 9] was 84.1 µM and the kcat [2, 9] was 21.54 s⁻¹. It also gave a Km [2, 10] of 55.2 µM, a kcat [2, 10] of 26.67 s⁻¹ and a Km [2, 11] of 104 µM. For the same substance, the kcat [2, 11] was 29.49 s⁻¹, the Km [2, 12] was 258 µM and the kcat [2, 12] was 27.69 s⁻¹. The kinact ([3]; 25° C.) was 0.13 ± 1.2 × 10^−2 days−1, the t1/2 ([3]; 25° C.) was 5.43 ± 0.51 days and the kinact ([3]; 40° C.) was 6.61 ± 0.47 day⁻¹. For the same substance, the t1/2 ([3]; 40° C.) was 0.10 ± 7.5 × 10^−3 days, the activity lost [4] was “lost half of its activity” and the “Apparent Vmax” value ([5]; aprotinin [I]0 0 mM) was 1.13 mM/s. The KM/Vmax ([5]; aprotinin [I]0 0 mM) was 76.3 s⁻¹, the “Apparent Vmax” value ([5]; aprotinin [I]0 0.098 mM) was 1.17 mM/s and the KM/Vmax ([5]; aprotinin [I]0 0.098 mM) was 149.2 s⁻¹. The “Apparent Vmax” value ([5]; aprotinin [I]0 0.196 mM) was 1.14 mM/s, the KM/Vmax ([5]; aprotinin [I]0 0.196 mM) was 242.8 s⁻¹ and the “Apparent Vmax” value ([5]; aprotinin [I]0 0.294 mM) was 1.19 mM/s. For the same substance, the KM/Vmax ([5]; aprotinin [I]0 0.294 mM) was 314.3 s⁻¹, the “Apparent Vmax” value ([5]; aprotinin [I]0 0.392 mM) was 1.04 mM/s and the KM/Vmax ([5]; aprotinin [I]0 0.392 mM) was 431.6 s⁻¹. For the same substance, the “Apparent Vmax” value ([5]; aprotinin [I]0 0.490 mM) was 1.13 mM/s, the KM/Vmax ([5]; aprotinin [I]0 0.490 mM) was 569.45 s⁻¹ and the Ki ([5]; inhibitor aprotinin) was 56.3 nM. The “increase of hydrodynamic diameter (Dh)” value ([6]; 37° C., after 2 hours) was 9 fold and the “hydrodynamic diameter Dh at time zero” value ([6]; time zero) was 6.3±0.5 nm.
